Test: label from the status in PepcDB records
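Also: failed if final PepcDB status was selected cloned or expressed and not failed if soluble or beyond.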

| Sequence | protein production |
| --- | --- |
| MGHHHHHHSHMVASWELRVEGRLLEDSALSKYDATKQKRKFSSFFKSLVIELDKDLYGPDNHLVEWHRTATTQETDGFQVKRPGDVNVRCTVLLMLDYQPPQFKLDPRLARLLGIHTQTRPVIIQALWQYIKTHKLQDPHEREFVI | failed |
| MGHHHHHHSHPQLLHFVDQYREQLIARVTSVEVVLDKLHGQVLSQEQYERVLAENTRPSQMRKLFSLSQSWDRKCKDGLYQALKETHPHLIMELWEKGSKKGLLPLSS | not failed |
| MGHHHHHHSHSWDFGAFQSSSATDSSMEEIFQHLMAYHQEASKRISSHIPLIIQFFMLQTYGQQLQKAMLQLLQDKDTYSWLLKERSDTSDKRKFLKERLARLTQARRRLAQFPG | failed |
| MGHNAINRLQLVATLAEREVMRYTPAGVPIVNCLLSYSGQAMEAQAARQVEFSIEALGAGKMASVLDRIAPGTVLECVGFLARKHRSSKALVFHISGCNVFVKDLEHHHHHH | not failed |
| MGHQSSWMKQTVIDSVVQSSKVGVFSMFSMDYKAPRKYSHGRNFGVARQQDFAADIVTRRPYAPYDNGMKKGPNKLSRNLVWTSKEYKSPEGNRPRQNAANGSAKPQVIGTGHRVSNQPRKNAVYGPRSSSLSDTRGCGPRLNGSPKKSVCNFWKDGNCKKGEKCQFLHSWSCFPGLAMVAALEGHKNDIKGIALPQGSDKLFSVSGDGTLLIWDCNSGQCVRSINLQAEAGSLISEGPWVFLGLPNAVKAFNVQNSKDVHLEGVVGQVHAMTAANGMLFAGTSSGSILVWKATDSESDPFKYLTSLEGHHSGEVTCFVVGGEVLYSGSVDKTIKVWDLNTLQCRMTLKQHIGTVTSLLCWDKCLISSSLDGTIKLWACSENESLKVVQTRKQELSVHTLCGMHDAEAKPIMFCSYQNGAVGIFDLPSFEERGKMFSTQTICTLTIGPGGLLFSGDKSGNLRVWSLASGTKV | failed |
| MGIDELYKKEFGIVAGVDEAGRGCLAGPVVAAAVVLEKEIEGINDSKQLSPAKRERLLDEIMEKAAVGIGIASPEEIDLYNIFNATKLAMNRALENLSVKPSFVLVDGKGIELSVPGTCLVKGDQKSKLIGAASIVAKVFRDRLMSEFHRMYPQFSFHKHKGYATKEHLNEIRKNGVLPIHRLSFEPVLELLTDDLLREFFEKGLISENRFERILNLLGARKSVVFRKERTNHNLPLF | not failed |
| MGIELVMENAHWFWLSLGGLLLAAEMLGGSGYLLWSGLSAVLVGLLTWIMPLGWPWQGTIFAILTIVTALLWWYWLRKRTLSRPPSTLNQRGQQLVGLRATVSESVTNGFGRVNIGDSSWRVKSEQDLPAGTHVEVIAVDGITLHVRSIER | failed |
| MGIHQYFQSLSDLENIYRCPGKFKYQEHSVAEHSYKVTSIAQFFGAVEEDAGNEVNWRALYEKALNHDYSELFIGDIKTPVKYATTELREMLSEVEESMTKNFISREIPATFQPIYRHLLKEGKDSTLEGKILAISDKVDLLYESFGEIQKGNPENIFVEIYSEALATIYEYREMASVKYFLKEILPDMLAEKGIEKTELPQLTTEITTKALRDE | not failed |
| MGIIDRRRRRAVLVVAVVAAVLIFVADALSPIDGAVAVLYTGVVLMVAPLGRKFIVVAGYISAVLALTAFLWGHASDLVGGALLRLVVSLVAILITVLLSMRDRSARISLAEQVRILEASHDTVIIRDSAGIVRYWNEGAERLYGRSRDQAIGRHYAELFDESAPVDEIDRSMREAGSWSGEVVRTRRDGARLILASRWLQRRDPEGRAIGVIEASADLTESRRAQAEQRRSERRYSTIFNSAGFAALECDLSDALSLVLSAGADVAASLRADPALLAAAVERIVICEANPAALEMFDADGPGELIVAELLAFSIPDARQALETIFVALTTGSTQIETETRFITRRGRTIDAVLRLSVLPDGTDWSRVLLMAVDVTERNEARTKIERISAELAHAGRVSVLGQLAASIAHEVNQPLAAIINYGKSGKRWLVRPTSDIGEVAECLDKIVSNANRAAEVVGRVRFLARKSAPLTDSVDLVVMLQDAIELLRREIHSVKATVRVELSTPIAMIDCDRVQVQQVFVNLLMNALQAMRGIDGHRQILVRIEDSGDSLTVAVCDTGVGIAGDPARIFEPFFSTKSDGMGLGLSICRTIIEGQGGQILASNNDGPGATVAFTLLRNNPDEGRHNRRLIS | failed |
| MGIMELARIDLSRDDLDKRIGGGIPHGSLIIIEGEESTGKSVLCQRLAYGFLQNRYSVTYVSTQLTTLEFIKQMNSLNYSINKKLLSGALLYIPVYPLIADNKKKDGFLKKVMETRAFYEKDVIIFDSISALIANDASEVNVDDLMAFFKRITALKKIIICTVNPKELPESVLTIIRTSATMLIRTELFTFGGDLKNLAKILKYNMAPGSYQKNIVFRVEPKIGIAVEIASVALEHHHHHH | not failed |
| MGKDAKAGGKGKGKQASGSEEAPSKGKGKAGKAADGLGTCTYVKARHVLCEKQGKINEAYKKLQDGWLSNGDKVPPAEFAKIAAEYSECPSGKKGGDLGWFPRGKMAGPFQDVAFNTPVGVTSAPFKSTHGYHIILSEGRKN | failed |
| MGKFLIPIEFVFLAIAMTCYLWHRQNQERRRIEISIKQQTQRERFINQITQHIRQSLNLETVLNTTVAEVKTLLQVDRVLIYRIWQDGTGSAITESVNANYPSILGRTFSDEVFPVEYHQAYTKGKVRAINDIDQDDIEICLADFVKQFGVKSKLVVPILQHNRASSLDNESEFPYLWGLLITHQCAFTRPWQPWEVELMKQLANQVAIAIQQSELYEQLQQLNKDLENRVEKRTQQLAATNQSLRMEISERQKTEAALRHTNHTLQSLIAASPRGIFTLNLADQIQIWNPTAERIFGWTETEIIAHPELLTSNILLEDYQQFKQKVLSGMVSPSLELKCQKKDGSWIEIVLSAAPLLDSEENIAGLVAVVADITEQKRQAEQIRLLQSVVVNTNDAVVITEAEPIDDPGPRILYVNEAFTKITGYTAEEMLGKTPRVLQGPKTSRTELDRVRQAISQWQSVTVEAEVLNDSYKEKKSPLK | failed |
| MGKINTDPAATSGIKVLDRAVSIMLAVAERPLSLTELCDVTNLPRATAHRLATALETHNILTRTSDGKWTIGAVLSSLGA | failed |
| MGKKIITISREYGSGGRQVGLTVAKKLGMEFYDKELIDAAAKEIGFPTEMIADREQRLTNSLLYNFAMGTLYGIAYPREPKVSELPLTEQIYQAQKKAIEEAAKRGSCIFVGRCADYILKSRPDVLRVFIYADRDIRKRRAIEEYGEIEEYIDEFMYQTDKRRRIHYENYTNQKWGSRENYDLMLNSGDLGLDKCVELLCEAVK | not failed |
| MGKPVTNEAKGVYVMSVLPNMPAAGRLEAGDRIAAIDGQPINTSEQIVSYVREKQAGDRVRVTFIRDRKQHEAELVLKPFPHHPNQIGLGVTLRTLEHHHHHH | not failed |
| MGKTKRYWLLKTEPNEWSWSDQESNGGISKWDGVKNKQAQKNLKSMTLGDLCFFYHSGTKSRCVVGVVEVSREWYTDDAEGVEGEGAVDVKAIGEMRKCVDLKEMKGDKGIITKGFVLFRQPRLSVVPVEEDVWNMICELGNGFCGDGKEDCESSDDE | failed |
| MGKVSSLKLKTNRRCIYITTIKEITEAIKADPDNAEYTAKGWDPLFHVLPTATILVISQAPGRIAQNTKTYFNDASGDRLRDWMGVTREQFYQSDRIAVMPLDFYYPGKGKSGDLPPRKGFMDKWHEPLLAMMPNVQLTLLVGQYAIKAYLGRSRQKTLTATVQNYQDYLPDYFPLVHPSPLNYGWQKKNPWFQATVVPDLQRRVQIALK | failed |
| MGKVTIIAGGIKTESRLNGLIQLAANQLANNGTEVKIIEVHKIQAEALVTADFTHPDIHLANSEIESSSGVIIATPIFKAAYSGVLKAYLDLLPLKALKGKVVLPLGLGGSNGHLLALQYALDPVLKELGAEIILKGQFTVDKQIERLGNGLYEIEITAKERLDSALNQFISLLNQNSVEVLEHHHHHH | not failed |
| MGKVYRTSQMAASILVNAIYAMKNFPITLVNTLLSPLSFLLVITLASHGRLLSVSVGGALIMSMISSGIGLQGDLSHLKNDFKLQDMVVSSPTTASVYLIGMAISEIVYSIPALAVLGVHASIYIHTTVVGVFQIVAVMVLMFSFSILLGFTLATITYDIIQSWAFSGIISTLISTIPPVYYPITYIPMPFRYAAYASPTTYGAELVQSAIGFVHLSGASFIVDWVILIMINVVFFIIALKKARWREI | failed |
| MGLDDLVGQWLLPGMALAAVGVFFCIKGYLLRRQMARDALTDALTVGELRRRVHALVLGKRQRVYSGAMFLVEVVHHPELSAMLGLEDNKLLLAMIAQRLQMQSDYFQVARHSSDSFMVWAPDLDPRSARDVAPEVLDALSQPYELRGQPLIVGFRLSGALYAQHGACFDELERSLHIAMLHLDESAGAAWNMFEPSMLEHQRHYQGLEHDLRVALVSSSMDQFEVCYQPVCDSVTGTIYGCEALLRWHHPVHGDVSPALVIELAERTGLIVPLGAWVLETACSRAITWPAAWRLHVNVSVRQMYADELPAQVALALAASRLSAQRLVLEITESLFIQQYERHVATLNGMRAKGVRVALDDFGAGYSSLTHLRRLPIDWVKLDRGFVAEIEFDAVSREVVSALMGMCRALGLAVVAEGVETPAQREILKALGCREMQGFLLGRPVSAERIRELGAAVS | failed |
| MGLFELNLAIILFIIGNFIGLEYSYRKYSSPYVEKGIDKFALAISVFGGILINSPLYMLGCLLIGFPLGMRPGYGRVEFVVGLAVALFLYFLRW | failed |
| MGLKNIVVFVEPSNAGATRARYAVELARRHGAHLIGIFVASSDGPIPANAYVRGRDAMRRLIELHDANAIETTSVASRNFNTATNSADITYEFRIIREIESDDTKLHCLHADLVIVGHPRPGGLPLYSSAEGLLLATGIPFLIVPDGWPSGAVAQRVLLAWNASREARRAITDSLPLLSAAQSVSIVVIDSAKNRLHGENPGADVAVYLSRHGAHVTTEQIDSNGSPIADVILQHAVHGGFDLIVLGAYSHARVREAVFGGVTRSLLKLATIPMLIAH | failed |
| MGLNIKPLVVSVLGSVLLAGCATAPPKQQDNLCEIFREKSGWYDDAKYMEKEWGTPIHVAMAIIKQESSFRHDAKPPKDYVLGFIPWGRVSSAYGYAQAQDPAWDDFQDSTGQGGSRSNFDDSIMFVGWYTHETRRQLGISLWDPYNQYLAYHEGRGGYKRGTYKRKPSLMKVARRVEQTAKTYGWQLKQCRQELEDNSSWFF | failed |
| MGLSHKFQVKQFVEISPYSQSRLRHEQPQTPIHSDITTYHCHRGQFDIVAGGLPCQGTSNAGNRQGLDDPRSALWAEQFRIIESDRPAIALIENPTGLLYRGLEQIICDLDSIGYMGEWNCISAQQVGLPHQRKRIFIIAYSNGLFNQVVPAPWSNQIGNHITQVRLSLETRSYQPGISKVASRIPIGVAKNIPGNYDARRAYGLSCSPRQAAVAWKRIDYLCSLLEHHHHHH | failed |
| MGLVTDEVRARAEKYTGDEICREKTKEFLKEVSMPNGLLPLKDIEEVGYDRETGIVWLKQKKSITHKFEAIGKLVSYATEVIAQVEVGKIKKLTGVKAKELLIWVTLNELVLEQPTSSGKINFRTPTGLSRTFPVSAFVVPEVEKPATEKNNGTTEVKEAVAVTDA | failed |

From a protein production outcome set (Wang et al. 2014)
